# B1: TPR t1 (parent)
# chain: GACCAAUCUGCCCUCAGAGCUCGAGAACAUCUUCGGAUGCAGAGGAGGCAGGCUUCGGUGGCGCGAUAGCGCCAACGUCCUCAACCUCCAAUGCAUCCCACCACAUGAUGAUGCCUGAAGAGCCUUGGUUUUUUG
# Variants of: B1
# Assay: polymerase ribozyme fitness, log enrichment relative to wild type (log ratio); higher = more active; in vitro selection for triplet polymerase activity
# Procedure, shortened: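 Mutant libraries were PCR-built and transcribed for each subunit of a heterodimeric triplet polymerase ribozyme and selected for one round in triplicate at −7 °C, frozen, before gel excision of extended constructs and streptavidin-bead capture. Input and output libraries were Illumina-sequenced, keeping genotypes with ≥10 input reads and ≥1 read per output. Fitness is a logarithmic ratio of genotype to wild-type enrichment, in base 2, using inverse-variance-weighted replicate averages.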
row,Variant,polymerase ribozyme fitness (log ratio)
1,C13A A41G G63A U132C,-4.55
2,C13A U81A,-3.27
3,C12U G39U U55A G71A C94G C102A G113U,-6.81
4,C12U U129A,-0.808
5,C13A G44A C89U C102G,-6.88
6,C13U A50G,-0.113
7,C13A U14G G42A A84U,-3.34
8,C12U G48C C72G U131G,-1.72
9,C13A A26G C53G A84U A90G,-4.94
10,C13U C88U,0.907
11,C13U C82U,-0.268
12,C13A A41U G57U,-3.67
13,C13G G58U G60C,-2.45
14,C13A G42C A66C C99U C101U C114U G127U,-6.24
15,C13A G61A C89A,-3.18
16,C13G G45U G71U C85A,-4.6
17,C13A G48A U96A,-2.1
18,C12U G60A,-0.607
19,C12U G60C,0.537
20,C13G A37U C53A C79A U87C U129C,-5.34
21,C13A A41U G45C C82A,-4.65
22,C13A U130A,-2.56
23,C12U G51C C79U,-2.71
24,C13A G71A A90G,-2.51

row,Variant,polymerase ribozyme fitness (log ratio)
1,C12U G19A C56G U130C,-2.66
2,C13G G48U C64U,-2.15
3,C13U C34G U133A,-4.86
4,C12U U14A,-2.23
5,C13U C15G A18U A66U,-5.7
6,C12U G69C,-0.628
7,C13G C15U G69A C114U,-6.44
8,C13U A29U U78A C80U U96G U116G G120U G122A,-5.15
9,C12U G122U,1.06
10,C12U G44C A50C,-0.802
11,C13U A41G G60U,-0.254
12,C13A C76G C97U C102A C104U,-3.66
13,C13U C64U U92C U96C,-1.14
14,C13U C89A,-1.08
15,C12U G52A U112A G120A,1.03
16,C13G C85A U112C,-1.28
17,C13A G39C C76G U106C,-2.79
18,C12U C89U,0.399
19,C13A G48A,-2.23
20,C13U A18U G42C U87A C124U,0.0751
21,C12U G44U A46U C85A,-4.14
22,C13G G69C C98U,-3.93
23,C12U C102A C124U,0.00391
24,C12U U30G G63U G113C G117C,-7.89

row,Variant,polymerase ribozyme fitness (log ratio)
1,C13U A18G G36A G48U C72U A118U,-6.03
2,C13U G17U C31U U106A C115U,-1.65
3,C13U A46U C72G G122A,-1.17
4,C13U C79A C115A G127C,-1.14
5,C12U U59G,0.247
6,C13U A18U A118G,-1.84
7,C12U G39C G45U A100U U131G,-3
8,C13G U87C A121C,0.326
9,C13G A41U C97U,-3.81
10,C13G G48U C53A U59G,-1.72
11,C13G C53G C72U,-1.34
12,C12U G47A G113U,-3.45
13,C13U C15A G60A G113C G135U,-7.27
14,C13G A50U,-3.13
15,C13U C53A U92G C101U,-1.94
16,C13A G69U C73G,-5.01
17,C13U C40U G48U G110A G117U A118U,-4.23
18,C13G G17A U55G,-5.5
19,C13G C53A G69U C79A G120C,-0.403
20,C13U A37C C40A C73A G93A G117U,-3.4
21,C13U C98U,-1.1
22,C13U A50U C88G U112A G117A,-2.57
23,C13U A37U G42U G63U C85U U112A,-3.9
24,C13G G60C G77U C101A G120C,-1.78

row,Variant,polymerase ribozyme fitness (log ratio)
1,C13U A41U U126C,-2.14
2,C13A G48A G61A U106A A118G,-2.04
3,C12U C123A,2.11
4,C12U U109C,-2.5
5,C12U G69C C73U U129G,-3.42
6,C12U G42U C73A U112A G135C,-0.178
7,C13G G117U,-4
8,C13U A46U U130G,-2
9,C12U G42C C53A G71U C88G G128A G135U,-6.24
10,C12U U55G U59C U133A,-0.128
11,C13A C49G C56G U96A,-3.42
12,C13U A105U C115A A121U,0.733
13,C13G C56G C86G C98A C101A C102U G113A,-6.46
14,C13U A74C,0.251
15,C13G C79A G113A,-3.53
16,C13G U54G,-1.83
17,C13A U38C C49G G61U U106G C115G G135C,-6
18,C13G C28U,-3.35
19,C13U G17U C49U A50C,-2.06
20,C13U G42U C56U C73U C114G C123A,-2.2
21,C13G C34A,-4.26
22,C12U G47U A83C,-2.09
23,C12U U38G C62U C76U C79A,-1.79
24,C13U A18G A46C U96C A100C C123G,-4.57

row,Variant,polymerase ribozyme fitness (log ratio)
1,C13A G63A A74C G128A,-5.18
2,C12U U32C G69U C76G G77U C80U A84G,-4.98
3,C13A C40U,-1.37
4,C13A A16U G71C G120C,-0.814
5,C13G G51A C97U A111G U129A,-6.21
6,C13A G36C,-1.87
7,C13G A41C A50U U133A,-4.37
8,C13A A46C G69C C124G,-1.36
9,C13A C15G U106A G117C,-0.827
10,C13G A29G G42A,-5.99
11,C13G C22U G113A,-4.71
12,C13A G19U C82A U87G G120A,-3.21
13,C12U C98U,-0.736
14,C12U C98G,-4.85
15,C12U G36U G47U U106G,-5.66
16,C12U G58A C62A,-1.76
17,C13A C73G G120A C123A,-1.91
18,C13G G42U C49U G61U,-3.55
19,C12U G42C C73A G122A,-0.687
20,C13G A74G C79U,-1.86
21,C12U G61A A84U,0.279
22,C13G A24G A27G C56G A111C,-7.83
23,C13U A46U C56A C85U,-2.14
24,C13U A29G G52A C102U,-4.34

row,Variant,polymerase ribozyme fitness (log ratio)
1,C12U U133A,0.306
2,C13U C101A,-0.869
3,C13U C101U,-0.0534
4,C13U C15U U59A A84C A90C U106G U130A,-4.77
5,C13U G23A,-5.12
6,C13U G25C C62G C82A C86A C102U U109C,-7.42
7,C13A C94G C101A,-4.8
8,C13U A50G C85G C123G,-0.185
9,C13U C62U C85A U106A,-1.41
10,C13U C88A A90C,-1.03
11,C13G U59C C124A,1.58
12,C13G C85G U112A G120C,-1.17
13,C13U A41G A43C U87C G113A G122U,-1.25
14,C13U C82A C97A,-4.74
15,C13U A24G A50U,-1.91
16,C13A U78G C88A A105U,-4.55
17,C12U C102A,-1.07
18,C12U G47C C97G G120C,-3.35
19,C13G G36U A75G G77A C123U,-0.649
20,C13G C20U G93A C124A,-1.04
21,C12U G69U U78G A100U,-0.359
22,C13G G48A C56A C73A,-3.11
23,C13A C79G,-3.47
24,C13A C49U U87G C123A U131G,-0.403

row,Variant,polymerase ribozyme fitness (log ratio)
1,C13G G47A,-2.67
2,C13A C64U,-1.99
3,C13G A26G C49A U96A,-5.63
4,C12U G61A U106A C114A,-0.698
5,C12U G42C C72U,-1.28
6,C13A C28G C34A G69A A84C G110C,-4.89
7,C12U G45C C102A,-2.34
8,C13G C94U,-1.78
9,C12U U14G C15G G61A C88U U129C,-1.38
10,C12U C86A,0.101
11,C12U U21G C62G A74C U78A,-3.33
12,C13G C72A C82A U96G A100U C115A,-3.76
13,C13G C22G C53U G60A U92C A118U,-5.33
14,C12U U33G U131A,-4.55
15,C13U C53A C72A A103U G127U,-5.25
16,C13U C76G C85U C104G,-7.55
17,C13G C56G C101U,-2.67
18,C13U A18G G23A A46U A111G,-7.19
19,C13G G25C C49A C98U U112A C115G,-7.45
20,C13A A29G C53U,-2.88
21,C13G C15U G58C,-3.58
22,C13U A37G C101U,-0.644
23,C13G C82U,-2.11

# — the RNAGym collection of RNA variant scans (doi:10.1073/pnas.2313332121)
